Reference: publication PMC8854693, “Development and characterization of functional antibodies targeting NMDA receptors” (Nature Communications, 2022)

How the values were obtained:
[1] = molecular target: T1, purified intact rat GluN1a-GluN2B NMDA receptor (Rattus norvegicus, UniProt P35439;Q00960); test: ELISA; 96-well MaxiSorp plates covered by the GluN1a-GluN2B NMDAR proteins, in the presence of 0.005% LMNG (methods; 0.01% in the results); state of the IgG not told
T1 construct: rat GluN1a (GluN1-1a splice variant, without the exon 5-encoded motif); called intact; rat GluN2B; the immunogen and the ELISA antigen

[2] = molecular target: T2, intact GluN1b-GluN2B NMDA receptor (Rattus norvegicus, strain); test: cryo-EM structure; receptor mixed with Fab at 1:3 (w:w), purified on Superose 6; 1 mM glycine and 1 mM glutamate; 0.002% LMNG, 0.1% digitonin; conditions: both partners purified
T2 construct: called intact; density seen for ATD, LBD and TMD; rat GluN2B; heterotetramer; Also used here for the functional rows on receptors expressed in oocytes or HEK293 cells from wild-type rat cRNA or cDNA; also called GluN1-1b-GluN2B; GluN1b-2B; source: Sf9 insect cells (EarlyBac), solubilised in 0.5% LMNG, purified (Strep-Tactin Sepharose, Superose 6); copies: 2 + 2

binding result [1]	stoichiometry N [2]	Binder
binds	–	IgG2, mouse monoclonal antibody against the GluN1-GluN2B NMDA receptor (antibody, V domains shown, the Fab part of the heavy chain is in the crystal structure of Fab2 (PDB 7TE4) and in the cryo-EM models; the light chain is in the crystal structure of Fab2 (PDB 7TE4) and in the cryo-EM models; mouse immunoglobulin-gamma; raised against purified intact rat GluN1a-GluN2B NMDAR; source: hybridoma cell culture supernatant, purified (rProtein-A Sepharose)) VH: DVKLQESGGGLVQPGGSLKLSCAASGFTFSSYTMSWVRQTPEKRLEWVAYISNGGGGTYYPDTVKGRFTISRDNAKNTLYLQMNSLKEDTAMYYCARPSRGGSSYWYFDVWGAGTTVTVSS VL: DIQMTQSPSSLSASLGGKVTITCKASQDINKYIAWYQHKPGKGPRLLIHYTSSLQPGIPSRFSGSGSGRDYSFSISNLEPEDIATYYCLQYDNLYTFGGGTKLEIK
–	2 Fab2 per heterotetrameric channel	Fab2, antigen-binding fragment of IgG2 (Fab, V domains shown, heavy chain of the crystal structure of Fab2 (PDB 7TE4); as the Fab part of the heavy chain of m1; light chain of the crystal structure of Fab2 (PDB 7TE4); as the light chain of m1; source: papain proteolysis of purified IgG2, Fc removed on rProtein-A Sepharose) VH: DVKLQESGGGLVQPGGSLKLSCAASGFTFSSYTMSWVRQTPEKRLEWVAYISNGGGGTYYPDTVKGRFTISRDNAKNTLYLQMNSLKEDTAMYYCARPSRGGSSYWYFDVWGAGTTVTVSS VL: DIQMTQSPSSLSASLGGKVTITCKASQDINKYIAWYQHKPGKGPRLLIHYTSSLQPGIPSRFSGSGSGRDYSFSISNLEPEDIATYYCLQYDNLYTFGGGTKLEIK
binds	–	IgG5, mouse monoclonal antibody against the GluN1-GluN2B NMDA receptor (antibody, V domains shown, the Fab part of the heavy chain is in the crystal structure of GluN1b-GluN2B ATD-Fab5 (PDB 7TE6) and in the cryo-EM models; the light chain is in the crystal structure of GluN1b-GluN2B ATD-Fab5 (PDB 7TE6) and in the cryo-EM models; mouse immunoglobulin-gamma; source: hybridoma cell culture supernatant, purified (rProtein-A Sepharose)) VH: DVKLQESGGGSVKLGGSLKLSCVVSGFTFSTYYMSWVRQTPEKRLELVAVINSNGGNTYYPDNVKGRFTISRDNAENTLYLQMSSLKSEDTALYYCARRDYDGFAMDYWGQGTSVTVSS VL: DIQLTQSPASLAVSLGQRATISCRASQSVSTSRYSYMHWYQHKPGQPPKLLIKYASNLESGVPARFSGSGSGTDFTLNIHPVEEEDTATYYCQHSWENPYTFGGGTKLEIK
